The supplement of paper PMC9732359
± gives the uncertainty stated by the source.

Experiment: protein stability index of a GFP-peptide fusion (yeast GPS) (PSI 1-4); higher = more stable; sorted into four equal gates, so the index is relative within each strain
Method in brief: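 Sequencing reads from sorted gates were used to score each peptide. The library consisted of tiled 17-residue yeast protein peptides fused downstream of GFP on a Cherry-expressing plasmid, pooled and carried in yeast. Mid-log cultures in leucine-free medium were split into four equal gates by GFP/Cherry ratio, and each gate's plasmids were PCR-amplified and Illumina-sequenced. The protein stability index adds up, over all gates, the read frequency multiplied by the gate number.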

## RNKRAVQLPILKIIYTG [YJL039C/NUP192]
doa10∆
  protein stability index: 1.6 ± 0.056
pdr5∆
  protein stability index: 1.87 ± 0.048
san1∆
  protein stability index: 1.97 ± 0.069
ubr1∆
  protein stability index: 2.02 ± 0.067

## RNNLPAKTFGASVRIFL [RPL33A]
doa10∆
  protein stability index: 2.81 ± 0.052
pdr5∆
  protein stability index: 2.76 ± 0.054
san1∆
  protein stability index: 2.84 ± 0.053
ubr1∆
  protein stability index: 2.68 ± 0.052

## RNPDIYTREFVEAIRRS [NUT2]
doa10∆
  protein stability index: 2.42 ± 0.068
pdr5∆
  protein stability index: 2.15 ± 0.055
san1∆
  protein stability index: 2.84 ± 0.15
ubr1∆
  protein stability index: 3.02 ± 0.054

## RNVNWIERLTKRQFNNS [ITC1]
doa10∆
  protein stability index: 3.05 ± 0.12
pdr5∆
  protein stability index: 3.36 ± 0.15
san1∆
  protein stability index: 3.05 ± 0.13
ubr1∆
  protein stability index: 3.41 ± 0.12

## RNVTIQLENADTGTLDT [RPN2]
doa10∆
  protein stability index: 3.11 ± 0.095
pdr5∆
  protein stability index: 3.2 ± 0.082
san1∆
  protein stability index: 3.13 ± 0.069
ubr1∆
  protein stability index: 3.2 ± 0.093

## RPKPVSPPCYIIDHIPG [SNF5]
doa10∆
  protein stability index: 1.79 ± 0.098
pdr5∆
  protein stability index: 2.64 ± 0.096
san1∆
  protein stability index: 2.28 ± 0.12
ubr1∆
  protein stability index: 2.25 ± 0.079

## RPSITEAMMLKEEGLQQ [MED1]
doa10∆
  protein stability index: 3.41 ± 0.25
pdr5∆
  protein stability index: 3.65 ± 0.2
san1∆
  protein stability index: 3.16 ± 0.061
ubr1∆
  protein stability index: 2.94 ± 0.21

## RQFEVKQLQLAMHNSKA [POP1]
doa10∆
  protein stability index: 1.95 ± 0.055
pdr5∆
  protein stability index: 2.17 ± 0.059
san1∆
  protein stability index: 1.77 ± 0.088
ubr1∆
  protein stability index: 1.61 ± 0.038

## RQLANLIPFIVKQVLLS [NUT1]
doa10∆
  protein stability index: 1.62 ± 0.032
pdr5∆
  protein stability index: 1.55 ± 0.028
san1∆
  protein stability index: 1.59 ± 0.051
ubr1∆
  protein stability index: 1.69 ± 0.033

## RQNRNQEIFDANVQRLK [RPL13A]
doa10∆
  protein stability index: 3.15 ± 0.078
pdr5∆
  protein stability index: 3.19 ± 0.085
san1∆
  protein stability index: 3.19 ± 0.055
ubr1∆
  protein stability index: 3.4 ± 0.055

## RQPVEGRSRDGGLRFGE [RPB2]
doa10∆
  protein stability index: 2.86 ± 0.29
san1∆
  protein stability index: 2.81 ± 0.17

## RQQKLLEDQQRQQKLLL [SWI1]
doa10∆
  protein stability index: 3.2 ± 0.12
pdr5∆
  protein stability index: 3.05 ± 0.062
san1∆
  protein stability index: 3.03 ± 0.077
ubr1∆
  protein stability index: 3.25 ± 0.069

## RQTLAPYAVLSQFYELR [YJR042W/NUP85]
doa10∆
  protein stability index: 1.98 ± 0.12
pdr5∆
  protein stability index: 2.75 ± 0.24
san1∆
  protein stability index: 2.42 ± 0.16
ubr1∆
  protein stability index: 2.35 ± 0.09

## RRGTALGIKKEKRIQYA [RPB2]
doa10∆
  protein stability index: 1.95 ± 0.08
pdr5∆
  protein stability index: 1.44 ± 0.14
san1∆
  protein stability index: 2.33 ± 0.15
ubr1∆
  protein stability index: 2.89 ± 0.072

## RRMGILKKILDQCKKQR [RPO31]
doa10∆
  protein stability index: 1.63 ± 0.16
pdr5∆
  protein stability index: 1.7 ± 0.29
san1∆
  protein stability index: 1.61 ± 0.23
ubr1∆
  protein stability index: 1.9 ± 0.098

## RRSKMNPLWNAIIVAGV [PRE4]
doa10∆
  protein stability index: 2.87 ± 0.097
pdr5∆
  protein stability index: 3.25 ± 0.12
san1∆
  protein stability index: 2.86 ± 0.097
ubr1∆
  protein stability index: 2.93 ± 0.074

## RRTYNTLEDKFLLLAVN [ISW2]
doa10∆
  protein stability index: 1.34 ± 0.084
pdr5∆
  protein stability index: 1.67 ± 0.076
san1∆
  protein stability index: 1.18 ± 0.19
ubr1∆
  protein stability index: 1.28 ± 0.071

## RSEFIESLLNWINRSDG [YJR042W/NUP85]
pdr5∆
  protein stability index: 3.11 ± 0.15
san1∆
  protein stability index: 2.77 ± 0.24
ubr1∆
  protein stability index: 3.22 ± 0.22

## RSMDAEQLGHASKRHKP [RPP1]
doa10∆
  protein stability index: 2.55 ± 0.056
pdr5∆
  protein stability index: 2.87 ± 0.053
san1∆
  protein stability index: 2.73 ± 0.054
ubr1∆
  protein stability index: 2.74 ± 0.046

## RSNGSVASLSKRNKLLT [YJL039C/NUP192]
doa10∆
  protein stability index: 1.73 ± 0.1
pdr5∆
  protein stability index: 1.55 ± 0.068
san1∆
  protein stability index: 2.1 ± 0.12
ubr1∆
  protein stability index: 1.54 ± 0.062

## RSYDLTRHQNTIHAKRK [RPN4]
doa10∆
  protein stability index: 2.48 ± 0.061
pdr5∆
  protein stability index: 2.48 ± 0.065
san1∆
  protein stability index: 2.52 ± 0.071
ubr1∆
  protein stability index: 2.53 ± 0.07

## RTLWPEFIPPDPTKVTE [SSN8]
doa10∆
  protein stability index: 2.49 ± 0.042
pdr5∆
  protein stability index: 2.73 ± 0.038
san1∆
  protein stability index: 2.78 ± 0.04
ubr1∆
  protein stability index: 2.671 ± 0.026

## RTQAGDIVSIDIEEPQL [MTW1]
doa10∆
  protein stability index: 2.99 ± 0.12
pdr5∆
  protein stability index: 3.26 ± 0.1
san1∆
  protein stability index: 3.36 ± 0.061
ubr1∆
  protein stability index: 3.24 ± 0.081

## RTRRLKRKRRKVRARSK [RPL41A]
pdr5∆
  protein stability index: 3.13 ± 0.22
ubr1∆
  protein stability index: 3.22 ± 0.2

## RVFNAKDTTGPKAISNF [YCS4]
doa10∆
  protein stability index: 2.9 ± 0.1
pdr5∆
  protein stability index: 2.82 ± 0.13
san1∆
  protein stability index: 3.18 ± 0.11
ubr1∆
  protein stability index: 2.9 ± 0.1

## RVLITQRHIAVGKQIVN [RPS9A]
doa10∆
  protein stability index: 2.22 ± 0.072
pdr5∆
  protein stability index: 1.92 ± 0.087
san1∆
  protein stability index: 2.83 ± 0.12
ubr1∆
  protein stability index: 2.59 ± 0.15

## RVNEMVQGMNDDIFIRY [ECM29]
doa10∆
  protein stability index: 1.7 ± 0.095
pdr5∆
  protein stability index: 1.89 ± 0.17
san1∆
  protein stability index: 2.09 ± 0.19
ubr1∆
  protein stability index: 2.39 ± 0.11

## RVSLQDIKDFADKVYTK [QCR2]
doa10∆
  protein stability index: 2.85 ± 0.069
pdr5∆
  protein stability index: 3.07 ± 0.082
san1∆
  protein stability index: 2.62 ± 0.079
ubr1∆
  protein stability index: 2.67 ± 0.076

## RYFWLDHNGVPFPQYPA [ITC1]
doa10∆
  protein stability index: 2.22 ± 0.096
pdr5∆
  protein stability index: 2.81 ± 0.086
san1∆
  protein stability index: 3.08 ± 0.1
ubr1∆
  protein stability index: 2.47 ± 0.06

## RYPMNLLEFIIDEIAYL [ECM29]
doa10∆
  protein stability index: 2.43 ± 0.097
pdr5∆
  protein stability index: 2.89 ± 0.1
san1∆
  protein stability index: 2.75 ± 0.091
ubr1∆
  protein stability index: 2.89 ± 0.2

## RYVYAHFPINVNIVEKD [RPL9A]
doa10∆
  protein stability index: 2.04 ± 0.048
pdr5∆
  protein stability index: 2.17 ± 0.049
san1∆
  protein stability index: 2.06 ± 0.062
ubr1∆
  protein stability index: 2.19 ± 0.043

## SAENRDEKDYLTNQQPK [CSE2]
doa10∆
  protein stability index: 2.76 ± 0.063
pdr5∆
  protein stability index: 2.79 ± 0.062
san1∆
  protein stability index: 2.54 ± 0.048
ubr1∆
  protein stability index: 2.77 ± 0.038

## SAESWGTGRAVARIPRV [RPL4A]
doa10∆
  protein stability index: 3.06 ± 0.19
pdr5∆
  protein stability index: 3.51 ± 0.28
san1∆
  protein stability index: 2.65 ± 0.21
ubr1∆
  protein stability index: 2.75 ± 0.27

## SAFKFIHTQLSEIKQQI [YJL039C/NUP192]
doa10∆
  protein stability index: 2.33 ± 0.1
pdr5∆
  protein stability index: 2.62 ± 0.087
san1∆
  protein stability index: 2.82 ± 0.12
ubr1∆
  protein stability index: 2.83 ± 0.061

## SAGNDKMVKAWNLNQFQ [ASC1]
doa10∆
  protein stability index: 2.46 ± 0.044
pdr5∆
  protein stability index: 2.38 ± 0.054
san1∆
  protein stability index: 2.15 ± 0.065
ubr1∆
  protein stability index: 2.36 ± 0.041

## SAKGPEIIPLQDYYIIG [MED6]
doa10∆
  protein stability index: 3.18 ± 0.098
pdr5∆
  protein stability index: 3.14 ± 0.054
san1∆
  protein stability index: 3.14 ± 0.044
ubr1∆
  protein stability index: 3.31 ± 0.063

## SAKTRSHNWAAKAKRRH [RPL37B]
doa10∆
  protein stability index: 3.42 ± 0.093
pdr5∆
  protein stability index: 3.32 ± 0.071
san1∆
  protein stability index: 3.31 ± 0.059
ubr1∆
  protein stability index: 3.41 ± 0.042

## SALEQAIIYQRGKDGKL [YGL100W/SEH1]
doa10∆
  protein stability index: 2.93 ± 0.073
pdr5∆
  protein stability index: 3.22 ± 0.051
san1∆
  protein stability index: 3.15 ± 0.047
ubr1∆
  protein stability index: 3 ± 0.06

## SAMPAPYMPYYYYYHPM [DSN1]
doa10∆
  protein stability index: 2.4 ± 0.058
pdr5∆
  protein stability index: 2.87 ± 0.056
san1∆
  protein stability index: 2.74 ± 0.049
ubr1∆
  protein stability index: 2.84 ± 0.042

## SANTNNTCTISTSKFES [SWP82]
doa10∆
  protein stability index: 2.59 ± 0.055
pdr5∆
  protein stability index: 2.51 ± 0.07
san1∆
  protein stability index: 2.43 ± 0.055
ubr1∆
  protein stability index: 2.13 ± 0.04

## SARGIETRPAQVILPMS [FAS2]
doa10∆
  protein stability index: 3.06 ± 0.08
pdr5∆
  protein stability index: 2.93 ± 0.073
san1∆
  protein stability index: 3 ± 0.068
ubr1∆
  protein stability index: 3.16 ± 0.082

## SASFSLKNGDKPHLLKF [RPL6B]
doa10∆
  protein stability index: 2.4 ± 0.16
pdr5∆
  protein stability index: 2.42 ± 0.23
san1∆
  protein stability index: 3.25 ± 0.14
ubr1∆
  protein stability index: 3.42 ± 0.16

## SASLHLNYGVYLNGTLI [RET1]
doa10∆
  protein stability index: 2.65 ± 0.16
san1∆
  protein stability index: 3.09 ± 0.1
ubr1∆
  protein stability index: 3.18 ± 0.092

## SASTSATGISGSVSEET [ECM29]
doa10∆
  protein stability index: 3.34 ± 0.047
pdr5∆
  protein stability index: 3.25 ± 0.047
san1∆
  protein stability index: 3.12 ± 0.041
ubr1∆
  protein stability index: 3.33 ± 0.042

## SCQIAQPYEDRPFEGLF [RRP45]
doa10∆
  protein stability index: 3.33 ± 0.24
pdr5∆
  protein stability index: 3.26 ± 0.095
san1∆
  protein stability index: 3.15 ± 0.086

## SCSFFAKLSDTLIIDQV [NUT1]
doa10∆
  protein stability index: 2.22 ± 0.052
pdr5∆
  protein stability index: 1.79 ± 0.051
san1∆
  protein stability index: 2.06 ± 0.11
ubr1∆
  protein stability index: 1.91 ± 0.039

## SDAMSIDEEDKDSESFS [YCG1]
doa10∆
  protein stability index: 2.85 ± 0.15
pdr5∆
  protein stability index: 1.95 ± 0.1
san1∆
  protein stability index: 2.61 ± 0.13
ubr1∆
  protein stability index: 2.4 ± 0.069

## SDEEENNNNKSINKNNK [SSN2]
doa10∆
  protein stability index: 2.94 ± 0.07
pdr5∆
  protein stability index: 3.02 ± 0.079
san1∆
  protein stability index: 2.72 ± 0.065
ubr1∆
  protein stability index: 3.07 ± 0.08

## SDEKKDGDASKPAFSFG [YJL041W/NSP1]
doa10∆
  protein stability index: 3.24 ± 0.092
pdr5∆
  protein stability index: 2.64 ± 0.23
san1∆
  protein stability index: 3.25 ± 0.056
ubr1∆
  protein stability index: 3.23 ± 0.1

## SDELHNQSTIYEDEELS [LIN1]
doa10∆
  protein stability index: 3 ± 0.079
pdr5∆
  protein stability index: 2.87 ± 0.098
san1∆
  protein stability index: 3.11 ± 0.07
ubr1∆
  protein stability index: 2.97 ± 0.077

## SDIESLEALMDILLCYQ [SRB8]
doa10∆
  protein stability index: 2.84 ± 0.13
pdr5∆
  protein stability index: 2.74 ± 0.2
san1∆
  protein stability index: 3.03 ± 0.19
ubr1∆
  protein stability index: 2.29 ± 0.2

## SDIKQGYTQHGGLRPFG [PRE9]
doa10∆
  protein stability index: 3.5 ± 0.13
pdr5∆
  protein stability index: 2.53 ± 0.23
san1∆
  protein stability index: 3.58 ± 0.15

## SDINQNDDSSSMNATMR [YDL088C/ASM4]
doa10∆
  protein stability index: 2.88 ± 0.09
pdr5∆
  protein stability index: 2.98 ± 0.075
san1∆
  protein stability index: 2.76 ± 0.073
ubr1∆
  protein stability index: 2.69 ± 0.054
